According to publication PMC5777782, “Dimeric and tetrameric forms of muscle fructose-1,6-bisphosphatase play different roles in the cell” (Oncotarget, 2017):
Substitutions are numbered along the chain they refer to.

Tests used:
[1] = target: T1, Muscle fructose-1,6-bisphosphatase (FBP2), wild-type (Homo sapiens, UniProt O00757); test: coupled glucose 6-phosphate isomerase/glucose 6-phosphate dehydrogenase activity assay; AMP-induced tetramerization by sedimentation velocity ultracentrifugation; format: biochemical
T1 construct: tag-free WT FBP2, expressed in E. coli
T1 sequence (O00757 2-339): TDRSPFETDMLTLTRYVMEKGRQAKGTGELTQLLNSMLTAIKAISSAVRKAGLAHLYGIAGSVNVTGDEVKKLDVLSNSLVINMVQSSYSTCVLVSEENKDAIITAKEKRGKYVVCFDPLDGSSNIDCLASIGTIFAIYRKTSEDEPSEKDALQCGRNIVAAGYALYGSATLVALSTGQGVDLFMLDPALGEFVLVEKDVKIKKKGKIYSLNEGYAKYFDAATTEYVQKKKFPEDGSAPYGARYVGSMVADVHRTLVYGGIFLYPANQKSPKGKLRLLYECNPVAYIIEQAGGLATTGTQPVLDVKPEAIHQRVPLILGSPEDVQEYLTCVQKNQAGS

[2] = target: T2, Muscle fructose-1,6-bisphosphatase (FBP2), L190G mutant (Homo sapiens, UniProt O00757, L191G); test: coupled enzyme activity assay, biphasic inhibition (second phase IC50 […]); format: biochemical
T2 construct: tag-free FBP2, expressed in E. coli
T2 sequence (O00757 2-339 L191G): T1 sequence (O00757 2-339) with L190G

[3] = target: T3, Muscle fructose-1,6-bisphosphatase (FBP2), D187L mutant (Homo sapiens, UniProt O00757, D188L); test: coupled enzyme activity assay; oligomerization by sedimentation velocity ultracentrifugation; format: biochemical
T3 construct: tag-free FBP2, expressed in E. coli
T3 sequence (O00757 2-339 D188L): T1 sequence (O00757 2-339) with D187L

[4] = target: human FBP2 D187L mutant (human); test: AUC; sedimentation velocity, laser interferometry, 42,000 rpm, 20°C, protein at 0.5 mg/ml, with 5 mM AMP
[5] = target: human FBP2 D187L mutant (human); test: AUC; sedimentation velocity, laser interferometry, 42,000 rpm, 20°C, protein at 0.1, 0.5 and 1 mg/ml, without AMP; distribution of monomers, dimers and tetramers
[6] = target: human FBP2 D187L mutant (human); test: AUC; sedimentation velocity, laser interferometry, 42,000 rpm, 20°C, protein at 0.5 mg/ml, with 120 μM AMP
[7] = target: human FBP2 L190G mutant (human); test: AUC; sedimentation velocity, laser interferometry, 42,000 rpm, 20°C, protein at 0.5 mg/ml, with 5 mM AMP
[8] = target: human FBP2 L190G mutant (human); test: AUC; sedimentation velocity, laser interferometry, 42,000 rpm, 20°C, protein at 0.5 mg/ml, with 0.16 μM AMP
[9] = target: human FBP2 L190G mutant (human); test: AUC; sedimentation velocity, laser interferometry, 42,000 rpm, 20°C, protein at 0.1, 0.5 and 1 mg/ml, without AMP; distribution of monomers, dimers and tetramers
[10] = target: human FBP2 L190G mutant (human); test: AUC; sedimentation velocity, laser interferometry, 42,000 rpm, 20°C, protein at 0.5 mg/ml, with 120 μM AMP

## Nc1ncnc2c1ncn2[C@@H]1O[C@H](COP(=O)(O)O)[C@@H](O)[C@H]1O [AMP]
[1]
  IC50: 0.59 ± 0.01 µM
[2]
  IC50: 84400 ± 6730 nM
[3]
  IC50: 1440 ± 60 nM

## human FBP2 D187L mutant (enzyme)
[4]
  percent tetrameric: 35%
[5]
  percent dimeric: 83.4%
  stoichiometry N: 2
[6]
  percent tetrameric: 45%

## human FBP2 L190G mutant (enzyme)
[7]
  stoichiometry N: 2
[8]
  stoichiometry N: 2
[9]
  percent dimeric: 91.2%
  stoichiometry N: 2
[10]
  stoichiometry N: 2
